Results taken from patent US20220313780A1, “METHODS AND COMPOSITIONS FOR TREATING INFLAMMATORY CONDITIONS” (THE SCRIPPS RESEARCH INSTITUTE, priority 2019, published 2022).

Molecular target: T1, EPCR (Homo sapiens, UniProt Q9UNN8)
T1 construct: endogenous in cells; host or cells: THP1-null (wildtype) cells, PMA-differentiated
T1 sequence (Q9UNN8 18-238): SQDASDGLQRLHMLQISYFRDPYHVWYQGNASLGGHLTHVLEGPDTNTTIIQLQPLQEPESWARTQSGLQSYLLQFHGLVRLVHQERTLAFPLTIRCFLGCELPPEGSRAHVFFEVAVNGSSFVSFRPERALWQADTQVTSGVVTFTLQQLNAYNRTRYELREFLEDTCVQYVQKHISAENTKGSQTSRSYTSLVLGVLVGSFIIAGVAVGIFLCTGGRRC
Assay: Caspase 1 activity assay in THP1 cells after blocking EPCR with antibody RCR-252
Format: cell-based
Conditions: RCR-252 50 μg/mL before APC 4 μg/mL, TR47 50 μM or P3R 50 μM
Protocol: THP1 or (A) NLRP3 deficient cells (THP1-defNLRP3) cells were plated at a final concentration of 1×10^6/mL in 96 well plates and incubated with PMA (0.5 μM) for 3 hours 37° C. in supplemented RPMI. Media was subsequently changed every 24 hours for 3 days. In brief, selected wells were treated with APC (4 μg/mL), TR47 (50 μM) or P3R (50 μM) for 1 hour, washed with DPBS, and incubated with LPS (1 μg/mL) for 3 hours at 37° C. in serum-free RPMI. After a DPBS wash, cells were incubated with ATP (5 mM) in the presence or absence of 10 μM YVAD (caspase 1 inhibitor) or 2.5 μM ZVAD (pan-caspase inhibitor) for 45 minutes at 37° C. […] Again, cells were washed with DPBS and incubated with ATP (5 mM) in the presence or absence of 10 μM YVAD (caspase 1 inhibitor) or 2.5 μM ZVAD (pan-caspase inhibitor) for 45 minutes prior to performing the caspase 1 activity following manufacturer's directions measuring luminescence. […] After a DPBS wash, cells were incubated with ATP (5 mM) in the presence or absence of 10 μM YVAD (caspase 1 inhibitor) or 2.5 μM ZVAD (pan-caspase inhibitor) for 45 minutes at 37° C., prior to performing the caspase 1 activity assay following manufacturer's directions measuring luminescence (relative luminescent units, RLU). […]

Sequence	effect of blocking EPCR on inhibition of caspase 1 activity
GAPPNSFEEFPFSALEGWTGATIT [P3R, PAR3-derived 24-mer peptide]	though trending, did not reach significance
NPNDKYEPFWEDEEKNESGL [TR47, PAR1-derived 20 amino acid peptide]	significant loss in their inhibition of caspase 1 activity
